Measured values reported in publication PMC9257163, “Fluorescence Detection of Cancer Stem Cell Markers Using a Sensitive Nano-Aptamer Sensor”.

Tests used:
TGF-β1 = TGF-β1 (UniProt P01137 279-390); experiment: competition (FRET turn-on displacement of AuNPs-ssRNA); 2 uM protein; QD-aptamers redispersed in PBS; sensor annealed from 95 °C to room temperature; binding buffer, pH and temperature not stated in the material; conditions: chain copies: 2; label: CdSe/ZnS QD on aptamer 5' end; AuNP (25 nm) on ssRNA 5' end; partially complementary RNA duplex; about 7 aptamers per QD; ssRNA displaced by protein
IL-1α = target: T1, IL-1α (UniProt P01583 113-271); experiment: as above; conditions: label: CdSe/ZnS QD on aptamer 5' end; AuNP (25 nm) on ssRNA 5' end; partially complementary RNA duplex; about 7 aptamers per QD; ssRNA displaced by protein
T1 sequence: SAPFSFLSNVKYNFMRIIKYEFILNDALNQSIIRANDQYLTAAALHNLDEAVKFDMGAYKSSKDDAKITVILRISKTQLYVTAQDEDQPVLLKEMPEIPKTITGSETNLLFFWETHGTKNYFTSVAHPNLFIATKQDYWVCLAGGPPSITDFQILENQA

EGFR = EGFR (UniProt P00533 25-645); experiment: as above; conditions: chain copies: 2; label: CdSe/ZnS QD on aptamer 5' end; AuNP (25 nm) on ssRNA 5' end; partially complementary RNA duplex; about 7 aptamers per QD; ssRNA displaced by protein
CD133 (prominin-1) = target: T2, CD133 (prominin-1) (UniProt O43490 20-865); experiment: competition (FRET turn-on displacement of AuNPs-ssRNA); 0-1.539 uM CD133, 5 nM QD-aptamer; maximum recovery 68%; LOD 6.99 nM (not a Kd); QD-aptamers redispersed in PBS; sensor annealed from 95 °C to room temperature; binding buffer, pH and temperature not stated in the material; conditions: label: CdSe/ZnS QD on aptamer 5' end; AuNP (25 nm) on ssRNA 5' end; partially complementary RNA duplex; about 7 aptamers per QD; ssRNA displaced by protein
T2 sequence: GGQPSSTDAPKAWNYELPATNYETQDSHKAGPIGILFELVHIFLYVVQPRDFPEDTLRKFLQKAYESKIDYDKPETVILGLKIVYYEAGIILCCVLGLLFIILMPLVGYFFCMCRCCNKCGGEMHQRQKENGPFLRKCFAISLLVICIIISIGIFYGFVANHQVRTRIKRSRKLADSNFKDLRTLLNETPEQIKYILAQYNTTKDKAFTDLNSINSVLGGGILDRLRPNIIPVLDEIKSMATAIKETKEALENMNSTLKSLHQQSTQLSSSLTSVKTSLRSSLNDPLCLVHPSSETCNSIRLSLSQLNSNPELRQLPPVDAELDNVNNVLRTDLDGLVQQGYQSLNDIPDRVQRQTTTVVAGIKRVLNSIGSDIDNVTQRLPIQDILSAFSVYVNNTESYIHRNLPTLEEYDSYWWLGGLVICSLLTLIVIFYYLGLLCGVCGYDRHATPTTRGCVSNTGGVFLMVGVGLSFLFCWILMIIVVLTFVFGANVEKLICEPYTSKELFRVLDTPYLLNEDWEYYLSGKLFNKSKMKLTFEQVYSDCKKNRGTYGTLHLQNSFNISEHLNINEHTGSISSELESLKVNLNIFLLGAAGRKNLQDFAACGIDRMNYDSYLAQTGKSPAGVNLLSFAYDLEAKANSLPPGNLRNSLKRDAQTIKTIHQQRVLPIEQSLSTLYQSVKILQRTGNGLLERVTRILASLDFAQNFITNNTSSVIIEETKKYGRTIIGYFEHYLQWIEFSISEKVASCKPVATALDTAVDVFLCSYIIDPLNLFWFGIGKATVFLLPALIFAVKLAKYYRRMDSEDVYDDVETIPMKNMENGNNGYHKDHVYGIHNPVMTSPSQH

TGF-β1, sequence (P01137 279-390): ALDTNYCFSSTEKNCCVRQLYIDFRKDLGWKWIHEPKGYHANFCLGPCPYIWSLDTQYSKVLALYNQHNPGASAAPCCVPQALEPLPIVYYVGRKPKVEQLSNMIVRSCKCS

B1: CD133 aptamer sensor (QD-aptamer hybridized to AuNPs-ssRNA) (mixed)
RNA 1: CCCUCCUACAUAGGG
RNA 2: CCCUAUG
modifications: 5'-NH2 on aptamer; 5'-SH on ssRNA
- binding result (TGF-β1): no binding
- binding result (IL-1α): no binding
- binding result (EGFR): no binding
- binding result (CD133 (prominin-1)): binds
